Measured values from patent US20080045450A1, “GLP-2 Derivatives” (priority 1996, published 2008).

Assay: Helix content by circular dichroism (CD) at 222 nm in aqueous solution
Assay type: physicochemical
Excerpt: The size of the partially helical, micelle-like aggregates may be estimated by size-exclusion chromatography. Similarly, the apparent (critical micelle concentrations) CMC's of the peptides may be estimated from the concentration dependent fluorescence in the presence of appropriate dyes (e.g. Brito, R. & Vaz, W. (1986) Anal. Biochem. 152, 250-255).
For the GLP-2 derivatives forming partially structured micellar-like aggregates in aqueous solution the helix content remains constant above 30% at concentrations of 10 μM. The aggregated structured conformation is an inherent property of the derivative present in water or dilute aqueous buffer without the need for any additional structure-inducing components. Note that the CD signal is proportional to the average content of α-helix in the peptides, i.e., a CD value of −1 corresponds to 10% α-helix content under these conditions.

native GLP-2: human glucagon-like peptide-2, a 33 amino acid residue peptide; parent peptide of the derivatives
helix content (at 500 μM concentration, in parallel with peptide self-association): 30-35%
helix content (starting value at low peptide concentration, before the increase seen with increasing concentration): 10-15%
